Data on one molecule can be found in patent publication US20110250170A1 (PHILOGEN S P A, published 2011).

For this test, the target named is T1, A1 domain of tenascin-C (TNC-A1) (UniProt P24821 1073-1163, limits assumed).
T1 construct: domain: A1; Coupled to Sepharose resin in the immunoreactivity test; also called extra-domain A1 of tenascin-C
T1 sequence (looked up): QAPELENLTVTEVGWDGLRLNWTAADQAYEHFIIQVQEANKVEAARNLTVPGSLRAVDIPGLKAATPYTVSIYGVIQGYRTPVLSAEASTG
In words: real-time interaction analysis, BIAcore 3000. On the technique in general: SPR reads the build-up and loss of mass on a sensor chip optically.

B1: F16 human monoclonal antibody (original clone 4A1-F16) (antibody, V domains shown)
VH: EVQLLESGGGLVQPGGSLRLSCAASGFTFSRYGASWVRQAPGKGLEWVSAISGSGGSTYYADSVKGRFTISRDNSKNTLYLQMNSLRAEDTAVYYCAKAHNAFDYWGQGTLVTVSR
VL: SSELTQDPAVSVALGQTVRITCQGDSLRSYYASWYQQKPGQAPVLVIYGKNNRPSGIPDRFSGSSSGNTASLTITGAQAEDEADYYCNSSVYTMPPVVFGGGTKLTVL
For orientation: koff means a measure of how fast the partners let go of each other. High values mean fast dissociation, low ones slow dissociation. With B1, the koff was below 0.01 s⁻¹.
